Data from the supplement of paper PMC10567573.

B1: CDC25A (parent)
chain: TVAGKHQDLKYISPEIMASVLNGK

Variants of: B1
Assay: protein stability index of a GFP-peptide fusion (GPS, HEK-293T) (PSI 1-6); higher = more stable
Conditions: c terminus: a fixed tail appended
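Note: lentivirally expressed fusions sorted by FACS into six bins by GFP to DsRed ratio, PSI derived from sequencing read proportions per bin multiplied by bin number.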

Variant	protein stability index
TVAGKHQDLKYISPEIMASVLPGK [N22P]	3.4
TVAGKHQDLKYISPEIMASVLKGK [N22K]	2.94
TVAGKHQDLKYISPEIMASVLHGK [N22H]	2.96
TVAGKHQDLKYISPEIMASVLQGK [N22Q]	3.37
TVAGKHQDLKYISPEIMASVLGGK [N22G]	2.84
TVAGKHQDLKYISPEIMASVLLGK [N22L]	2.56
TVAGKHQDLKYISPEIMASVLIGK [N22I]	2.77
TVAGKHQDLKYISPEIMASVLAGK [N22A]	2.92
TVAGKHQDLKYISPEIMASVLFGK [N22F]	1.93
TVAGKHQDLKYISPEIMASVLDGK [N22D]	3.54
TVAGKHQDLKYISPEIMASVLSGK [N22S]	3.27
TVAGKHQDLKYISPEIMASVLWGK [N22W]	1.95
TVAGKHQDLKYISPEIMASVLYGK [N22Y]	2.41
TVAGKHQDLKYISPEIMASVLEGK [N22E]	3.92
TVAGKHQDLKYISPEIMASVLCGK [N22C]	2.53
TVAGKHQDLKYISPEIMASVLVGK [N22V]	2.55
TVAGKHQDLKYISPEIMASVLMGK [N22M]	2.66
TVAGKHQDLKYISPEIMASVLTGK [N22T]	2.88
TVAGKHQDLKYISPEIMASVLNVK [G23V]	2.61
TVAGKHQDLKYISPEIMASVLNLK [G23L]	2.63
TVAGKHQDLKYISPEIMASVLNAK [G23A]	2.96
TVAGKHQDLKYISPEIMASVLNRK [G23R]	3.37
TVAGKHQDLKYISPEIMASVLNIK [G23I]	2.48
TVAGKHQDLKYISPEIMASVLNMK [G23M]	2.46

Variant	protein stability index
TVAGKHQDLKYISPEIMASVLNFK [G23F]	2.37
TVAGKHQDLKYISPEIMASVLNPK [G23P]	2.56
TVAGKHQDLKYISPEIMASVLNNK [G23N]	3.9
TVAGKHQDLKYISPEIMASVLNCK [G23C]	2.63
TVAGKHQDLKYISPEIMASVLNQK [G23Q]	3.4
TVAGKHQDLKYISPEIMASVLNKK [G23K]	3.36
TVAGKHQDLKYISPEIMASVLNTK [G23T]	3.25
TVAGKHQDLKYISPEIMASVLNSK [G23S]	3.01
TVAGKHQDLKYISPEIMASVLNHK [G23H]	2.9
TVAGKHQDLKYISPEIMASVLNEK [G23E]	3.69
TVAGKHQDLKYISPEIMASVLNDK [G23D]	3.57
TVAGKHQDLKYISPEIMASVLNYK [G23Y]	2.35
TVAGKHQDLKYISPEIMASVLNWK [G23W]	2.33
TVAGKHQDLKYISPEIMASVLNGM [K24M]	2.36
TVAGKHQDLKYISPEIMASVLNGI [K24I]	2.01
TVAGKHQDLKYISPEIMASVLNGS [K24S]	2.94
TVAGKHQDLKYISPEIMASVLNGR [K24R]	3.06
TVAGKHQDLKYISPEIMASVLNGQ [K24Q]	3.4
TVAGKHQDLKYISPEIMASVLNGG [K24G]	2.87
TVAGKHQDLKYISPEIMASVLNGW [K24W]	1.93
TVAGKHQDLKYISPEIMASVLNGF [K24F]	1.89
TVAGKHQDLKYISPEIMASVLNGC [K24C]	2.42
TVAGKHQDLKYISPEIMASVLNGT [K24T]	2.69
TVAGKHQDLKYISPEIMASVLNGN [K24N]	3.21

Variant	protein stability index
TVAGKHQDLKYISPEIMASVLNGE [K24E]	3.73
TVAGKHQDLKYISPEIMASVLNGV [K24V]	2.09
TVAGKHQDLKYISPEIMASVLNGY [K24Y]	2.01
TVAGKHQDLKYISPEIMASVLNGH [K24H]	2.44
TVAGKHQDLKYISPEIMASVLNGL [K24L]	2.01
TVAGKHQDLKYISPEIMASVLNGD [K24D]	3.61
TVAGKHQDLKYISPEIMASVLNGP [K24P]	3.26
TVAGKHQDLKYISPEIMASVLNGA [K24A]	2.67
TVAGKHQDLKYISPEIMACVLNGK [S19C]	2.46
TVAGKHQDLKYISPEIMANVLNGK [S19N]	3.61
TVAGKHQDLKYISPEIMAIVLNGK [S19I]	2.16
TVAGKHQDLKYISPEIMAWVLNGK [S19W]	1.94
TVAGKHQDLKYISPEIMARVLNGK [S19R]	3.29
TVAGKHQDLKYISPEIMADVLNGK [S19D]	3.41
TVAGKHQDLKYISPEIMAKVLNGK [S19K]	3.24
TVAGKHQDLKYISPEIMAGVLNGK [S19G]	2.77
TVAGKHQDLKYISPEIMALVLNGK [S19L]	1.86
TVAGKHQDLKYISPEIMAHVLNGK [S19H]	2.88
TVAGKHQDLKYISPEIMAQVLNGK [S19Q]	3.28
TVAGKHQDLKYISPEIMAMVLNGK [S19M]	2.38
TVAGKHQDLKYISPEIMAEVLNGK [S19E]	4.06
TVAGKHQDLKYISPEIMATVLNGK [S19T]	2.83
TVAGKHQDLKYISPEIMAAVLNGK [S19A]	3.1
TVAGKHQDLKYISPEIMAYVLNGK [S19Y]	1.88

Variant	protein stability index
TVAGKHQDLKYISPEIMAFVLNGK [S19F]	2.01
TVAGKHQDLKYISPEIMAPVLNGK [S19P]	3.65
TVAGKHQDLKYISPEIMAVVLNGK [S19V]	2.13
TVAGKHQDLKYISPEIMASMLNGK [V20M]	3.56
TVAGKHQDLKYISPEIMASTLNGK [V20T]	3.75
TVAGKHQDLKYISPEIMASFLNGK [V20F]	2.92
TVAGKHQDLKYISPEIMASDLNGK [V20D]	4.35
TVAGKHQDLKYISPEIMASRLNGK [V20R]	3.99
TVAGKHQDLKYISPEIMASSLNGK [V20S]	4.11
TVAGKHQDLKYISPEIMASNLNGK [V20N]	3.38
TVAGKHQDLKYISPEIMASWLNGK [V20W]	2.84
TVAGKHQDLKYISPEIMASALNGK [V20A]	3.56
TVAGKHQDLKYISPEIMASCLNGK [V20C]	2.93
TVAGKHQDLKYISPEIMASPLNGK [V20P]	3.64
TVAGKHQDLKYISPEIMASLLNGK [V20L]	2.84
TVAGKHQDLKYISPEIMASELNGK [V20E]	4.1
TVAGKHQDLKYISPEIMASHLNGK [V20H]	3.33
TVAGKHQDLKYISPEIMASYLNGK [V20Y]	2.72
TVAGKHQDLKYISPEIMASILNGK [V20I]	2.63
TVAGKHQDLKYISPEIMASQLNGK [V20Q]	3.68
TVAGKHQDLKYISPEIMASKLNGK [V20K]	3.73
TVAGKHQDLKYISPEIMASGLNGK [V20G]	3.79
